This is an account of results in paper PMC7332344.

The experiment deals with Rhodobacter sphaeroides TSPO A139T mutant (Rhodobacter sphaeroides) (UniProt Q9RFC8). The experiment in a line: native MS.

For orientation: stoichiometry N means a count of units in the complex or per binding partner. With “Rhodobacter sphaeroides TSPO A139T mutant (from UniProt Q9RFC8 1-157) (natural protein)”, the stoichiometry N amounted to 2.
